Results reported in patent publication US5985836A, “Alpha-1 proteinase inhibitor binding peptides” (Bayer Corporation, priority 1998, dated 1999).
Ends that are not written are not given here.

What was measured:
A1PI [1] = biological target: T1, A1PI (Homo sapiens, UniProt P01009); assay: A1PI binding on peptide-resin column, injection of 1 mg A1PI in equilibration buffer; conditions: 1 mg A1PI in equilibration buffer
T1 construct: Human plasma is currently the only approved source of therapeutic AlPI
T1 sequence (P01009 25-418): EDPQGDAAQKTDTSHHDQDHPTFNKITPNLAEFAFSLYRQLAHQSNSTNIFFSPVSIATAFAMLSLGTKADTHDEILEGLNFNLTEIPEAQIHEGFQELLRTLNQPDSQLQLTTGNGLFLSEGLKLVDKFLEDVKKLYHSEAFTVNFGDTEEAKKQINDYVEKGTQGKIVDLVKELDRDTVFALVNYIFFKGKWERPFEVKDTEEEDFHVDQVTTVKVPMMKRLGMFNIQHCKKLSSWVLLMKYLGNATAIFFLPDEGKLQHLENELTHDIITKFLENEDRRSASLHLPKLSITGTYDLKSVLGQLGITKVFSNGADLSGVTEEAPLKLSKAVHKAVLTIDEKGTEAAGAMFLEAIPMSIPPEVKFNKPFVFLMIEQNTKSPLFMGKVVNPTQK
Method in brief: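 Peptides synthesized on A-Totda-Toyopearl chelate resin (0.1 mmole/g) packed in 0.4×5 cm columns; 1 mg A1PI injected in equilibration buffer at 4 °C or 20 °C, 865 or 523 μl/min. Flowthrough, 1M/3M NaCl washes and 2% acetic acid eluate quantified by A280 or immunonephelometry as percent of total eluted.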

A1PI [2] = biological target: T1, A1PI; assay: A1PI purification from 5 mg hSA + 1 mg A1PI on peptide column, A1PI mass balance; assay type: binding; conditions: A1PI, 5 mg hSA + 1 mg A1PI; for Percent Eluted by Fraction, 1M NaCl / Percent Eluted by Fraction, 2% Ac. Acid / Percent Eluted by Fraction, 3M NaCl / Percent Eluted by Fraction, Flow: relative to total eluted
Method in brief: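 Peptides on A-Totda-Toyopearl resin (0.1 mmole/g) in 0.4×5 cm columns; 5 mg hSA + 1 mg A1PI loaded at 4 °C or 20 °C with 10 min residence (17 μl/min). Steps of 1M and 3M NaCl, then 2% acetic acid; fractions quantified by immunonephelometry for mass balance.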

A1PI [3] = biological target: T1, A1PI; assay: Purification of A1PI from Effluent II+III on peptide column, A1PI mass balance; assay type: binding; conditions: A1PI, 1 ml Eff. II+III, 4° C.
Method in brief: (§1)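 Peptide-ligand columns were loaded with 1 ml Cohn Effluent II+III (20% v/v ethanol, 20-25 mg/ml hSA, ~1 mg/ml A1PI, other plasma proteins at 0.1-1 mg/ml) using a 10 min residence time at 4° C. Step elutions at 865 μl/min used 1M NaCl, 3M NaCl, then 2% acetic acid, and protein mass balances were tracked across fractions.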

[4] = biological target: T2, apolipoprotein alpha-1 (Apo A-1) (Homo sapiens, UniProt P02647); assay: Purification from Effluent II+III, Apo A-1 mass balance; assay type: binding; conditions: 1 ml Eff. II+III, 4° C.
T2 construct: Eff; II+III is a process intermediate in the Cohn plasma fractionation process; tissue Bayer Corporation (Clayton, N.C.); host or cells: plasma fraction: Cohn Effluent II+III
T2 sequence (P02647 19-267): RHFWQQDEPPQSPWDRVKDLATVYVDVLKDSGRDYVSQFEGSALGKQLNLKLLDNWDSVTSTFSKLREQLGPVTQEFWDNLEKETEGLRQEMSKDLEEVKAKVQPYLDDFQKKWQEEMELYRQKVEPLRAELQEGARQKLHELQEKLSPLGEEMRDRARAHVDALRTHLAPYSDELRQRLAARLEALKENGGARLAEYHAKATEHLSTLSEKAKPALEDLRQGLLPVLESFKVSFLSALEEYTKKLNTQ
Method in brief: as §1

Immunoglobulin A (IgA) = assay: Purification from Effluent II+III, IgA mass balance; assay type: binding, human; conditions: 1 ml Eff. II+III, 4° C.
Method in brief: as §1

Immunoglobulin G (IgG) = assay: Purification from Effluent II+III, IgG mass balance; assay type: binding, human; conditions: 1 ml Eff. II+III, 4° C.
Method in brief: as §1

haptoglobin (Hpt) = assay: Purification from Effluent II+III, haptoglobin mass balance; assay type: binding, human; conditions: 1 ml Eff. II+III, 4° C.
Procedure: Sequences 1-11 and 15 were assayed with Effluent II+III (Eff. II+III). Eff. II+III is a process intermediate in the Cohn plasma fractionation process. The feed stream contains 20% (by volume) ethanol, 20-25 mg/ml hSA and approximately 1 mg/ml AlPI. The stream also contains other proteins including anti-thrombin III (AT3), immunoglobin G (IgG), immunoglobin A (IgA), apolipoprotein alpha-1 (Apo A-1), transferrin (Trf), haptoglobin (Hpt), and alpha-1 acid glycoprotein (AAG) at concentrations ranging from 0.1-1 mg/ml.
The columns were assayed using the same technique as the hSA+AlPI experiments, allowing for a 10 minute residence time followed by a constant flow rate of 865 μl/min with step elutions of 1M NaCl, 3M NaCl, and 2% acetic acid. All experiments were conducted at 4° C. The mass balances for the injection of 1 ml Eff. […] The AlPI was enriched from 3% of the total protein in the feed to upwards of 50% in the acid eluate.

A1PI [5] = biological target: T1, A1PI; assay: Capture and elution of active A1PI with 2M urea buffer (elastase inhibition activity assay and immunonephelometry); assay type: binding; conditions: 4° C.
[6] = 20° C., * Below detection limit
[7] = * as in Tables 4, 5 (below detection limit)

Percent A1PI Eluted by Fraction Based on Absorbance at 280 nm, 1M NaCl (A1PI [1]; 4° C.): 74%
Percent A1PI Eluted by Fraction Based on Absorbance at 280 nm, 2% Acetic Acid (A1PI [1]; 4° C.): 26%
Percent A1PI Eluted by Fraction Based on Absorbance at 280 nm, Flowthrough (A1PI [1]; 4° C.): 0%
Percent A1PI Eluted by Fraction, 1M NaCl (A1PI [1]; 20° C.): 64%
Percent A1PI Eluted by Fraction, 2% Acetic Acid (A1PI [1]; 20° C.): 36%
Percent A1PI Eluted by Fraction, Flowthrough (A1PI [1]; 20° C.): 0%
Mass Protein per Eluate Fraction, 1M NaCl (A1PI [2]; 4° C., * Below detection limit): 0.40 mg
Mass Protein per Eluate Fraction, 2% Ac. Acid (A1PI [2]; 4° C., * Below detection limit): 0.24 mg
Percent Eluted by Fraction, 1M NaCl (A1PI [2]; 4° C.): 62%
Percent Eluted by Fraction, 2% Ac. Acid (A1PI [2]; 4° C.): 38%
Percent Eluted by Fraction, 3M NaCl (A1PI [2]; 4° C.): 0%
Percent Eluted by Fraction, Flow (A1PI [2]; 4° C.): 0%
Mass Protein per Eluate Fraction, 1M NaCl (A1PI [2]; [6]): 0.15 mg
Mass Protein per Eluate Fraction, 2% Ac. Acid (A1PI [2]; [6]): 0.37 mg
Mass Protein per Eluate Fraction, Flow (A1PI [2]; [6]): 0.34 mg
Percent Eluted by Fraction, 1M NaCl (A1PI [2]; 20° C.): 18%
Percent Eluted by Fraction, 2% Ac. Acid (A1PI [2]; 20° C.): 43%
Percent Eluted by Fraction, 3M NaCl (A1PI [2]; 20° C.): 0%
Percent Eluted by Fraction, Flow (A1PI [2]; 20° C.): 39%
Percent Eluted by Fraction, 1M NaCl (A1PI [3]): 16%
Percent Eluted by Fraction, 2% Acetic Acid (A1PI [3]): 25%
Percent Eluted by Fraction, 3M NaCl (A1PI [3]): 0%
Percent Eluted by Fraction, Flow (A1PI [3]): 59%
Mass Protein per Eluate Fraction, 1M NaCl (A1PI [3]; [7]): 0.20 mg
Mass Protein per Eluate Fraction, 2% Acetic Acid (A1PI [3]; [7]): 0.30 mg
Mass Protein per Eluate Fraction, Flow (A1PI [3]; [7]): 0.71 mg
Percent Eluted by Fraction, 1M NaCl [4]: 0%
Percent Eluted by Fraction, 2% Acetic Acid [4]: 51%
Percent Eluted by Fraction, 3M NaCl [4]: 0%
Percent Eluted by Fraction, Flow [4]: 49%
Mass Protein per Eluate Fraction, 2% Acetic Acid [4, 7]: 0.30 mg
Mass Protein per Eluate Fraction, Flow [4, 7]: 0.28 mg
Mass A1PI in Urea Eluate (mg), Activity (A1PI [5]; 1 mg A1PI, eluted with 2M urea, pH 6, elastase inhibition activity assay): 0.75 mg
Mass A1PI in Urea Eluate (mg), Nephelometry (A1PI [5]; 1 mg A1PI, eluted with 2M urea, pH 6, immunonephelometry): 0.85 mg
Specific Activity (A1PI [5]; mass of A1PI by activity assay relative to immunonephelometry, urea eluate): 0.88 mg/mg
Substance: LIVHRW
Percent Eluted by Fraction, 1M NaCl (Immunoglobulin A (IgA)): 43%
Percent Eluted by Fraction, 2% Acetic Acid (Immunoglobulin A (IgA)): 20%
Percent Eluted by Fraction, 3M NaCl (Immunoglobulin A (IgA)): 0%
Percent Eluted by Fraction, Flow (Immunoglobulin A (IgA)): 37%
Mass Protein per Eluate Fraction, 1M NaCl (Immunoglobulin A (IgA); [7]): 0.18 mg
Mass Protein per Eluate Fraction, 2% Acetic Acid (Immunoglobulin A (IgA); [7]): 0.08 mg
Mass Protein per Eluate Fraction, Flow (Immunoglobulin A (IgA); [7]): 0.15 mg
Percent Eluted by Fraction, 1M NaCl (Immunoglobulin G (IgG)): 0%
Percent Eluted by Fraction, 2% Acetic Acid (Immunoglobulin G (IgG)): 0%
Percent Eluted by Fraction, 3M NaCl (Immunoglobulin G (IgG)): 0%
Percent Eluted by Fraction, Flow (Immunoglobulin G (IgG)): 100%
Mass Protein per Eluate Fraction, Flow (Immunoglobulin G (IgG); [7]): 0.31 mg
Percent Eluted by Fraction, 1M NaCl (haptoglobin (Hpt)): 40%
Percent Eluted by Fraction, 2% Acetic Acid (haptoglobin (Hpt)): 0%
Percent Eluted by Fraction, 3M NaCl (haptoglobin (Hpt)): 0%
Percent Eluted by Fraction, Flow (haptoglobin (Hpt)): 60%
Mass Protein per Eluate Fraction, 1M NaCl (haptoglobin (Hpt); [7]): 0.29 mg
Mass Protein per Eluate Fraction, Flow (haptoglobin (Hpt); [7]): 0.43 mg
